The values below come from patent US20250052751A1, “COMPOSITIONS AND METHODS FOR DIAGNOSING AUTOIMMUNE AQUAPORINOPATHY” (The Regents of the University of California, priority 2023, published 2025).

A word on the IC50: it is the concentration needed to halve the response being measured. Higher therefore signals weaker potency in that assay.

The target in this test is MHC class II I-A^b molecules purified by affinity chromatography (mouse) (UniProt P14434). The experiment in a line: competitive peptide binding assay on purified I-Ab.

As to MOG p35-55 (from UniProt Q61885 63-83), the IC50 came out at 387 nM. That is a sub-micromolar value.
